# Experiment: yeast display, Sf9 membrane polyspecificity reagent, FACS + sequencing; frameworks hold sequencing errors
# Outline: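 Galactose induction of a Saccharomyces cerevisiae BJ5465 synthetic nanobody display library ran 36–48 hours. The cells were then stained for 1 hour at 4 °C with 10% biotinylated, detergent-solubilized Sf9 membrane reagent, pulled down on streptavidin microbeads and FACS-sorted into low and high (top ~1%) gates on expression and reagent-binding fluorescence. Labels for polyreactivity follow the gate of origin.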
row,Sequence,polyreactivity (PSR sort gate)
1,QVQLVESGGGLVQAGGSLRLSCAASGYTFTINAMGWYRQAPGKERELVAAISWNGGRTYYADSVKGRFTISRDNAKNTDYVQMNSLQPEDTAVCYCNADTYSAGDYWGQGTQVTVSS,high polyreactivity
2,QVQLVESGGGLVQAGGSLRLSCAASGYTFTIYSMGWYRQAPGKERELVAAISWNGGRTYYADSVKGRFTISRDNAKNTVYLKMNSLKPEDTAVYDCNADNFSAGDYWGQGTQVTVSS,high polyreactivity
3,QVQLVESGGGLVQAGGSLRLSCAASGYTFTQNAMGWYRQAPGKERELVASITSGGSTDYADSVKGRFTISRDNAKNTVYLQMNSLKPEDTAVYYCAKDYYAYSDYDYWGQGTQVTVSS,low polyreactivity
4,QVQLVESGGGLVQAGGSLRLSCAASGYTFVDNAMGRYRQAPGKERELVAAINWDGASTYADSVKGRFTISRDNAKNTVYLQMNSLKPEDTAVYYCTASGKDIFNYVYQGYDYWGQGTQVTVSS,low polyreactivity
5,QVQLVESGGGLVQAGGSLRLSCAASGYTFVGYAMGWYRQAPGKERELVASISTGDSTYYADSVKGRFTISRDNAKNTVYLQMNSLKPEDTAVYYCAADFWEYEYPYDYWGQGTQVTVSS,low polyreactivity
6,QVQLVESGGGLVQAGGSLRLSCAASGYTFVYYAMGWYRQAPGKERELVAAITGNSGSTYADSVKGRFTISRDNAKNTVYLQMNSLNPEDTAVYYCAADQTGQDWYYVEFDYWGQGTQVTVSS,low polyreactivity
7,QVQLVESGGGLVQAGGSLRLSCAASGYTFWANAMGRYRQAPGKERELVAAISWTGGSTYYADSVKGRFTISRDNAKNTVYLQMNSLKPEDTAVYYCNRARINTRVQTDDYWGQGTQVTVSS,high polyreactivity
8,QVQLVESGGGLVQAGGSLRLSCAASGYTFWAYAMGWYRQAPGKERELVAAITYRGGSTYYADSVKGRFTISRDNAKNTVYLQMNSLKPEDTAVYYCAAEGYYTGYWDLYDYWGQGTQVTVSS,high polyreactivity
9,QVQLVESGGGLVQAGGSLRLSCAASGYTFWAYTMGWSRQAPGKERELVAAISFSGGSTYYADSVKGRFTISRDNAKNTVYLLMNSLKPEDTAVYYCAADYLIEMDYWGQGTQVTVSS,low polyreactivity
10,QVQLVESGGGLVQAGGSLRLSCAASGYTFWHYAMGWYRQAPGKEREFVATISSGGSTYYADSVKGRFTISRDNAMNTVYLQMNSLKPEDTAVYYCAADVDYIGPIYDYWGQGTQVTVSS,low polyreactivity
11,QVQLVESGGGLVQAGGSLRLSCAASGYTFWRYAMGWYRQAPGKERELVAAISASGGSTYYADSVKGRFTISRDNAKNTVYLQMNSLKPEDTAVYYCNAVSAYSYYVNYDYWGQGTQVTVSS,high polyreactivity
12,QVQLVESGGGLVQAGGSLRLSCAASGYTFYANAMGWYRQAPGKEREFVASITWSGGSTYYADSVKGRFTISRDNAKNNVYLQMHSLKPEDTAVYYCAAESWFKYDYWGQGTQVTVSS,low polyreactivity
13,QVQLVESGGGLVQAGGSLRLSCAASGYTFYANAMGWYRQAPGKEREFVASITWSGGSTYYPDSVKGRFTISRDNAKNTVYLQMNSLKPEDTAVYYCAAESWFKYDYWGQGTQETVSS,low polyreactivity
14,QVQLVESGGGLVQAGGSLRLSCAASGYTFYLYAMGWYRQAPGKESELVAAISTNGGRTYYADSVKGRFTISRDNAKNTVYLQMNSLKPEDTAVYYCAVRSRGTAPQYYYWGQGTQVTVSS,high polyreactivity
15,QVQLVESGGGLVQAGGSLRLSCAASGYTFYPYAMGWYRQAPGKERELVAAISYSGGRTYYADSVKGRFTISRDNAKNTVYLQMNSLKPEDTAVYYCAADSGRYRMYYWGQGTQVTVSS,high polyreactivity
16,QVQLVESGGGLVQAGGSLRLSCAASGYTFYQNAMGWYRQAPGKERELVAAITFRTGSTYYADSVKGRFTISRDNAKNTVYLQMNSLKPEDTAVYYCAATRFLRYWWYGYWGQGTQVTVSS,low polyreactivity
17,QVQLVESGGGLVQAGGSLRLSCAASGYTFYYYAMGWYRQAPGKEREFVAAISWRGGRTYYADSVKGRFTISRDNAKNTVYLQMNSLKPEDTAVYYCAARRDGWTFWKYDYWGQGTQVTVSS,high polyreactivity
18,QVQLVESGGGLVQAGGSLRLSCAASGYTIFSYGMGWYRQAPGKERELVAAISSGDRTNYADSVKGRFTISRDNAKNTVYLQMNSLKPEDTAVYYCNADRASSSVGYSDDFGHDSWGQGTQVTVSS,low polyreactivity
19,QVQLVESGGGLVQAGGSLRLSCAASGYTIRKNAMGWYRQAPGKERELVAAMSRSGGSTYYADSVKGRFTISRDNAKNIVYLQMNSLKPEDTAVYYCNTRYPYYWPMYGYWGQGTQVTVSS,high polyreactivity
20,QVQLVESGGGLVQAGGSLRLSCAASGYTIRYNALGWYRQAPGKERELVAAITQRSGSTYADSVKGRFTISRDNAKNTVYLQMNSLKPEDTAVYYCAARTPGYKLYDYWGQGTQVTVSS,low polyreactivity
21,QVQLVESGGGLVQAGGSLRLSCAASGYTIYSYAMGWYRQAPGKERELVAAITESGARTYYADSVKGRFTISRDNAKNTVYLLMNSLKPEDSAVYYCAADYAWPLRVTGDYWGQGTQVTVSS,low polyreactivity

row,Sequence,polyreactivity (PSR sort gate)
1,QVQLVESGGGLVQAGGSLRLSCAASGYTLGSYAMGWYRQAPGKERELVATITWGGGSTDYADSVKGRFTISRDNAKNTVYLQMNSLKPEDTAVYYCAAEDDSYDVEGSLYYWGQGTQVTVSS,low polyreactivity
2,QVQLVESGGGLVQAGGSLRLSCAASGYTLRPNGMGWYRPAPGKERELVAAISSGGSTYYADSVKGRFTISRDNAKNTVYLQMNSLKPEDTAVYYCAAEYWYDYWGQGTQVTVSS,low polyreactivity
3,QVQLVESGGGLVQAGGSLRLSCAASGYTLSFNAMGWYRQAPGKARELVAGITYSGGSTYYSDSVKGRFTISRDNAKNTVYLQMTSLKPEDTAVYYCNKASGVYYGHLDYWGQGTQVTVSS,low polyreactivity
4,QVQLVESGGGLVQAGGSLRLSCAASGYTLTPYTMGWYRQAPGKERELVAAINRSGGSTYYADSVKGRFTISRDNAKNTVYLQMNSLKPEDTAVYYCAAYGYYNFGYYYWGQGTQVTVSS,high polyreactivity
5,QVQLVESGGGLVQAGGSLRLSCAASGYTLYPNAMGRYRQAPGKERELVAAISSGSSTYADSLKGRFTISRDNAKNTVYLQMNSLKPVDTAVYYCNADARIHYDYWGQGTQVTVSS,low polyreactivity
6,QVQLVESGGGLVQAGGSLRLSCAASGYTMGWYRQAPGKEREYGAAINQTGGSTYADSVKGRFTISRDNAKNTVYLQMNSLKPEDTAVYYCATDPAYWGDQPPEYDYWGQGTQVTVSS,low polyreactivity
7,QVQLVESGGGLVQAGGSLRLSCAASGYTVLYAIGWYRQAPRKDRELVAAISSRTGTTYYADSVKGRFTISRDNAKNSVYLQMNSLKREDTAVYYCNVEYFYYFRENGDYWGQGTQVTVSS,low polyreactivity
8,QVQLVESGGGLVQAGGSLRLSCAASGYTVRFNAMGWYRQAPGKEREFVAAIDFGGAGTYYADSVKGRFTISRDNAKNTVYLQMNSLKPEDTAVYYCNARDGVTTEFDYWGQGTQVTVSS,low polyreactivity
9,QVQLVESGGGLVQAGGSLRLSCAASISSINAMGWYRQAPAKEREVVAASRWSGSSTYYADSVKGRFTISRDNAKNTVYLQMNSLKPEDTAGYYCAADTTTGDRGFDYWGQGTQVTVSS,high polyreactivity
10,QVQLVESGGGLVQAGGSLRLSCAASKESINAMGWYRQAPGKERELVAAIGWSGSSTYYADSVKGRFTISRDNAKNTVYLQMNSLKPEDTAVYYCAADTTTGDRGFDYWGQGTQVTVSS,high polyreactivity
11,QVQLVESGGGLVQAGGSLRLSCAASLRTFAWYAMGWYRQAPGKERELVAAITNRGSGTYYADSVKGRFTISRDNAKNTVYLQMNSLKPEDTAVYYCAKDPITATTLDERVFYWGQGTQVTLSS,low polyreactivity
12,QVQLVESGGGLVQAGGSLRLSCAASRITFSLYAMGWYRQAPGKERELGAAISRGGSTKYADSVKGRFTISRDNAKNTVYLQMNSLKPEDTAVYYCNASARTYGGQTWNYYWGQGTQVTVSS,high polyreactivity
13,QVQLVESGGGLVQAGGSLRLSCAASRITFYSYAMGWYRQAPGKERELVAAITFRGTSTYYADSVKGRFTISRDNAKNTVYLQMNSQKPEDTAVYYCAAYSGQARGYDYWGQGTQVTVSS,high polyreactivity
14,QVQLVESGGGLVQAGGSLRLSCAASRPIFYANAKGGYRQAPGKEREFVATIRRGTSTNYADSVKGRFTISRDNAKNTVYLQMNSLKPEDTAVYYCAVVSNGRRERYYYWGQGTQVTVSS,low polyreactivity
15,QVQLVESGGGLVQAGGSLRLSCAASRRIFGFYAMGWYRQAPGKERELVADINWSATSTYYADSVKGRFTISRDTAKNTVYLQMNSLKPEDTAVYYCAADVSYRYYWGQGTQVTVSS,low polyreactivity
16,QVQLVESGGGLVQAGGSLRLSCAASRRIFSDNAMGWNRKAPGKERELVAAITFRDGSTYADSVKGRFTISRDNAKNTVYLPMNSLKPEDTAVYYCNRRSQVHSHSKHDYWGQGTQVTVSS,low polyreactivity
17,QVQLVESGGGLVQAGGSLRLSCAASRRIFYWYAMGWYRQAPGKEREWVAAITWSGGSTYYADSVKGRFTISLDNAKNTVYLQMNSLKREDTAVYFCNAEVYWDVYPGLYYYDIYDYWGQGNQVTVSS,low polyreactivity
18,QVQLVESGGGLVQAGGSLRLSCAASRRTFNGNAMGWYRQAPGKETELVATITSSAGTTYYADSVKGRFTISRDNAKNTVYLQMNSLKPEDTAVYYCAKRIWRSYPYRPYYSEFGYWGQGTQVTVSS,high polyreactivity
19,QVQLVESGGGLVQAGGSLRLSCAASRRTFSQYAMGWYRQAHGKERELVAAITSARSTYYADSVKGRFTISRDNAKNTVYLQMNSLKPEDTAVYYCAAYIRFRSNWGQGTQVTVSS,high polyreactivity
20,QVQLVESGGGLVQAGGSLRLSCAASRRTFYEYAMGWYRQAPGKERELVAAITRSGGSTYYADSVKGRFTISRDNAKNTVYLQMNSLKPEDTAVYYCAAYRHQYRVRYYTAYDYWGQGTQVTVSS,high polyreactivity

# From the nanobody polyreactivity screen of Harvey et al. (2022)
